The values below come from US20220177599A1.

Bounds are passed on as bounds.

Assay [1] addresses Recombinant human EpCAM monomer protein (R&D systems, cat. no. 9277-EP), conjugated with Alexa Fluor 647 (human) (UniProt P16422). As to the kind of experiment: saturation binding by flow cytometry: CAR-expressing Jurkat T cells stained with serially diluted Alexa Fluor 647-conjugated EpCAM, one-site nonlinear regression of MFI. (In general: In flow cytometry, cells or beads pass a laser one at a time.)

Assay [2] has the same target. As to the kind of experiment: flow cytometry saturation binding: CAR-expressing Jurkat T cells stained with serially diluted AF647-conjugated EpCAM, MFI fitted with the one-site nonlinear regression model.
The target in assay [3] is EpCAM on tumor cells (SK-BR3, Capan-2, HT-29, SNU-638, MKN-45, MDA-MB-231, SW-1990) (human) (UniProt P16422). Nature of the assay: cell-based or functional assay.
Assay [4] concerns the target Recombinant human EpCAM monomer protein (R&D systems, cat. no. 9277-EP), conjugated with Alexa Fluor 647 (human) (UniProt P16422). As to the kind of experiment: saturation binding by flow cytometry on CAR-expressing Jurkat T cells with Alexa Fluor 647-conjugated EpCAM; reference is C215 CAR.
Assay [5] addresses Intercellular adhesion molecule-1 (ICAM-1) on tumor cells (SNU-638, MKN-45) (human) (UniProt P05362). Nature of the assay: cell-based or functional assay.
Chain of UniProt P05362 (P05362 28-532): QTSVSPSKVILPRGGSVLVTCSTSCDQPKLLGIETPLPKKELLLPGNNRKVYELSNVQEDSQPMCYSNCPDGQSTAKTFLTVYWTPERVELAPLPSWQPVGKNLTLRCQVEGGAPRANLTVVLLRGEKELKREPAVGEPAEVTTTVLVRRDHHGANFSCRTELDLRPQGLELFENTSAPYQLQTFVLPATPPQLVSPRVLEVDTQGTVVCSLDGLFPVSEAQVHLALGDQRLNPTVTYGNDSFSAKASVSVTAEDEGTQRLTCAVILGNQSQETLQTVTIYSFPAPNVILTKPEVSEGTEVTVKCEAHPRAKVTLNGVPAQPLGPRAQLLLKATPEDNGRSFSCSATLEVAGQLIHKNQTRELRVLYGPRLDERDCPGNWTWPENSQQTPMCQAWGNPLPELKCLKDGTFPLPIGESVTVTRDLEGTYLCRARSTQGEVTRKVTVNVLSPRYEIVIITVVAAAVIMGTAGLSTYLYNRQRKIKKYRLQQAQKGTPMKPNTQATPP

On to “C215 CAR (anti-EpCAM chimeric antigen receptor with the scFv of mouse monoclonal antibody C215, CD28-CD3ζ 2nd generation backbone)”, for which the dissociation constant (Kd) (in general, the concentration at which binding is half-saturated) came out at 4 nM in assay [1] and 3.95 nM in assay [2].

Consider “UBS54 CAR (anti-EpCAM chimeric antigen receptor with the scFv of monoclonal antibody UBS-54, CD28-CD3ζ 2nd generation backbone)”, for which the values for the dissociation constant Kd in assay [1] and in assay [2] were 250 nM and 253 nM, respectively. The molecule further registered a lysis of SNU-638 and MKN-45 wild-type cells at 48 hours (bioluminescence-based cytotoxicity assay, E:T 1:1) in assay [3] of 90%. Further, the fold difference of KD against C215 CAR in assay [4] was more than 60 fold.

B1: F292A CAR (ICAM-1 CAR with the LFA-1 αL I domain carrying the F292A mutation, 4-1BB-CD3ζ) (receptor, part only; not given: hinge, transmembrane, signalling domains, tag, not shown: large carriers)
chain, part: VDLVFLFDGSMSLQPDEFQKILDFMKDVMKKLSNTSYQFAAVQFSTSYKTEFDFSDYVKWKDPDALLKHVKHMLLLTNTFGAINYVATEVFREELGARPDATKVLIIITDGEATDSGNIDAAKDIIRYIIGIGKHFQTKESQETLHKFASKPASEFVKILDTAEKLKDLFTELQKKIYVIE
In assay [5], B1 had a killing of MKN-45 cells at 48 hours (bioluminescence-based cytotoxicity assay, E:T 1:1) of 0 and a specific lysis of SNU-638 cells at 48 hours (bioluminescence-based cytotoxicity assay, E:T 1:1) of 40%.
